The target of assay [1] is malate dehydrogenase (UniProt P00346).
In assay [2] the target is Trypanosoma brucei Hsp70.c (Trypanosoma brucei brucei TREU927).
The target in assay [3] is Trypanosoma cruzi Hsp70B (Trypanosoma cruzi).

Chain of UniProt P00346 (P00346 25-338): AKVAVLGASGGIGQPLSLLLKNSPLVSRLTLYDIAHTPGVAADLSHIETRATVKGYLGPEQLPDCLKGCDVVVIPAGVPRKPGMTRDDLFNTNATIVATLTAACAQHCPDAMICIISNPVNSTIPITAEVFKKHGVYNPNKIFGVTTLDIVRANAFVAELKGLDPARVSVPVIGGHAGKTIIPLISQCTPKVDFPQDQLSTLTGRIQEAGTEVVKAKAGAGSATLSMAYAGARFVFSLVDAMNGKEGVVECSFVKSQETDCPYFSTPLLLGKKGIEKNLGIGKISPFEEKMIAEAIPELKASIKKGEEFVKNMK

In assay [1], “Trypanosoma brucei Hsp70.c (natural protein)” yielded a suppression of thermal aggregation of MDH (0.72 µM, 48°C, light scatter at 360 nm, 30 min) by TbHsp70.c, dose-dependent; number printed for 0.5 µM TbHsp70.c of 61.8%.
“Trypanosoma brucei J protein 2 (natural protein)”: the stimulation of the basal ATPase activity of TbHsp70.c by Tbj2 (colorimetric phosphate release, 37°C, 600 µM ATP); equal concentrations 1.62-fold, Tbj2 at 2-fold molar excess 2.88-fold in assay [2] was 2.88 fold. The substance also came in with a stimulation of the basal ATPase activity of TcHsp70B by Tbj2 (colorimetric phosphate release, 37°C, 600 µM ATP); equal concentrations 1.39-fold, Tbj2 at 2-fold molar excess 2.62-fold in assay [3] of 2.62 fold.

The values are drawn from PMC3953656.
